Experimental data reported in patent US20230203134A1 (TRUSTEES OF COLUMBIA UNIVERSITY IN THE CITY OF NEW YORK, published 2023).
Substitutions are numbered along the chain they refer to.

B1: monoclonal antibody 4-18 (antibody, V domains shown)
VH: QVQLVESGGGVVQPGRSLRLSCAASGFTFSSYGMHWVRQAPGKGLEWVAVISYDGSNKHYADSVKGRFTISRDNSKNTLYLQMNSLRAEDTAVYYCAKDSGYNYGYSWFDPWGQGTLVTVSS
VL: SYELTQPPSVSVSPGQTARITCSADALAKQYAYWYQQKPGQAPVLVIYKDSERPSGIPERFSGSSSGTTVTLTISGVQAEDEADYYCQSTDNSGTYPNWVFGGGTKLTVL
notes: also called mAb 4-18; antibody number 4-18
B2: monoclonal antibody 5-7 (antibody, V domains shown)
VH: QVQLVQSGAEVKKPGASVKVSCKASGYTFTSYYMHWVRQAPGQGLEWMGVINPSGGSTSYAEKFRGRVTMTRDTSTSTVYMELSSLRSEDTAVYYCARDREPHSDSSGYWDSLKYYYYYALDVWGQGTTVTVSS
VL: AIQLTQSPSSLSASVGDRVTITCRASQGISSYLAWYQQKPGKAPELLIYAASTLQSGVPSRFSGSGSGTDFTLTISSLQPEDFATYYCQQLNTYPFTFGPGTKVDIK
notes: also called mAb 5-7; antibody number 5-7
B3: monoclonal antibody 1-68 (antibody, V domains shown)
VH: QVQLVQSGAEVKKPGASVKVSCKVSGYTLIELSMHWVRQAPGKGLEWMGGFDPEDAETIYAQKFQGRVTMTEDTSTDTAYMELSSLRSEDTAVYYCATGWAVAGSSDVWYYYYGMDVWGQGTTVTVSS
VL: QSALTQPPSVSGSPGQSVTISCTGTSSDVGSYNRVSWYQQPPGTAPKLMIYEVSNRPSGVPDRFSGSKSGNTASLTISGLQAEDEADYYCSSYTSSSTYVFGTGTKVTVL
notes: also called mAb 1-68; antibody number 1-68
B4: monoclonal antibody 2-17 (antibody, V domains shown)
VH: QVQLVQSGAEVKKPGSSVKVSCKASGGTFSSYAISWVRQAPGQGLEWMGGNIPIFGTANYAQKFQGRVTITADESTSTAYMELSSLRSEDTAVYYCARGVGYRGVIPLNWFDPWGQGTVVTVSS
VL: EIVMTQSPATLSVSPGERATLSCRASQSVSSDLAWYQHKPGQAPRLLIYGASTRATGIPVRFSGSGSGTEFTLTISSLQSEDFAVYYCQQYNNWPPFTFGGGTKVEIK
notes: also called mAb 2-17; antibody number 2-17
B5: monoclonal antibody 1-87 (antibody, V domains shown)
VH: B3 VH with W100I, A103I, S105P, S106P, D107P, V108S, W109T
VL: B3 VL with P8A, V18I, S31G, R34Y, P41H, T44K, E52D, N55K, P61S, D62N
notes: also called mAb 1-87; antibody number 1-87
B6: monoclonal antibody 2-7 (antibody, V domains shown)
VH: QITLKESGPTLVKPTQTLTLTCTFSGFSLSTSGVGVGWIRQPPGKALEWLALIYWDDDKRYSPSLKSRLTITKDTSKNQVVLTMTNMDPVDTATYYCAHHKIERIFDYWGQGTLVTVSS
VL: QSALAQPASVSGSPGQSITISCTGTSSDVGAYNYVSWYQQHPGKAPKLMIYDVSKRPSGVSNRFSGSKSGNTASLTISGLQAEDEADYYCSSYTTSSTVFGGGTKLTVL
notes: also called mAb 2-7; antibody number 2-7
B7: monoclonal antibody 1-20 (antibody, V domains shown)
VH: EVQLVESGGGLIQPGGSLRLSCAASGLTVSSNYMSWVRQAPGKGLEWVSVIYSGGSTFYADSVKGRFTISRDNSKNTLYLQMNSLRAEDTAVYYCARDLFYYGMDVWGQGTTVTVSS
VL: DIQLTQSPSFLSASVGDRVTITCRASQGISSYLAWYQQKPGKAPKLLIYAASTLQSGVPSRFSGSGSGTEFTLTISSLQPEDFATYYCQQLNSYPCFGPGTKVDIK
notes: also called mAb 1-20; antibody number 1-20
B8: monoclonal antibody 2-15 (antibody, V domains shown)
VH: QVQLVQSGAEVKKPGASVRVSCKASGYTFTGYYMHWVRQAPGQGLEWMGWINPISDGTNYAQKFQGWVTMTRDTSISTVYMELSRLRSDDTAVYYCARGGSRCSGGNCYGWAYDAFDIWGQGTMITVSS
VL: QSALTQPASVSGSPGQSITISCTGTSSDVGGYNFVSWYQQHPGKAPKLMIYDVSKRPSGVSNRFSGSKSGNTASLTISGLQAEDEADCYCSSYTSSSTFVFGTGTKVTVL
notes: also called mAb 2-15; antibody number 2-15
B9: monoclonal antibody 2-4 (antibody, V domains shown)
VH: QVQLVQSGAEVKKPGASVKVSCKASGYTFTGYYMHWVRQAPGQGLEWMGWINPNSGGTNYTQMFQGRVTMTRDTSISTAYMEVSRLRSDDTAVYYCARDRSWAVVYYYMDVWGKGTTVTVSS
VL: QSALTQPPSASGSPGQSVTISCTGTSSDVGGYNYVSWYQQHPGKAPKLMIYEVSKRPSGVPDRFSGSKSGNTASLTVSGLQAEDEADYYCSSYAGSNNLVFGGGTKLTVL
notes: also called mAb 2-4; antibody number 2-4
B10: monoclonal antibody 2-38 (antibody, V domains shown)
VH: EVQLVESGGGLVKPGGSLRLSCAASGFTFSSYSMNWVRQAPGKGLEWVSSISSSSSYIYYADSVKGRFTISRDNAKNSLYLQMNSLRAEDTAVYYCTRAGWELRLDAFDIWGQGTMVTVSS
VL: SSELTQDPAVSVALGQTVRITCQGDSLRSSYASWYQQKPGQAPILVIYDKNNRPSGIPDRFSGSSSGNTASLTITGAQAEDEADYYCNSRDSSGILFGGGTKLTVL
notes: also called mAb 2-38; antibody number 2-38
B11: monoclonal antibody 2-43 (antibody, V domains shown)
VH: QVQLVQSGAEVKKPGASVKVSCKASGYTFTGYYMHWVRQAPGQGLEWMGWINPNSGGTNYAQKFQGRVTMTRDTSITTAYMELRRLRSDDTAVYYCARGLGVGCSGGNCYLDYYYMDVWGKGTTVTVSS
VL: B8 VL with F34Y, A86G, C88Y, F99W, T103G, V107L
notes: also called mAb 2-43; monoclonal Ab 2-43
B12: monoclonal antibody 2-30 (antibody, V domains shown)
VH: QVQLVESGGGVVQPGRSLRLSCAASGFTFSSYTMHWVRQAPGKGLEWVAAISYDGNNKYYADSVKGRFTISRDNSKNTLYLQMNSLRAEDTAVYYCARSILYGGGMDVWGQGTTVTVSS
VL: B2 VL with A1D, K42Q, E45K, T93S, F96L, P100G, D105E
notes: also called mAb 2-30; antibody number 2-30
B13: monoclonal antibody 2-51 (antibody, V domains shown)
VH: QVQLVQSGAEVKKPGASVKVSCKVSGYTLIELSMHWVRQAPGKGLEWMGGFDPEDVETIYAQQFQGRVTMTEDTSTDTAYMELSSLRSEDTAVYYCATGWAYKSTWYFGYWGQGTLVTVSS
VL: QSALTQPPSASGSPGQSVTISCTGTSSDVGGYNYVSWYQQHPGKAPKLMIYEVSKRPSGVPDRFSGSKSGNTASLTVSGLQAEDEADYYCSSYAGSRMGFGGGTKLTVL
notes: also called mAb 2-51; antibody number 2-51
B14: monoclonal antibody 4-20 (antibody, V domains shown)
VH: QVQLLQSGAEVKKPGASVKVSCKASGYSFTSYYMHWVRQAPGQGLEWMGIINPSGGGTTYAQKFQGRVTMTRDTSTSTVYMELSSLRSEDTAVYYCARPGGGSYQEFDYWGQGTLVTVSS
VL: DIQMTQSPSSLSASVGDRVTITCRASQSISSYLNWYQQKPGKAPKLLISAASSLQSGVPSRFSGSGSGTDFTLTISSLQPEDFATYYCQQSYNTLQVTFGGGTKVEIK
notes: also called mAb 4-20; antibody number 4-20

Molecular target: T1, SARS-CoV-2 N-terminal domain (NTD) (SARS-CoV-2, UniProt P0DTC2 14-290)
T1 construct: range 1-290
Experiment: ELISA (FIG. 10D-F)

| Binder | binding result |
| --- | --- |
| B1 | binds |
| B2 | binds |
| B3 | binds |

Molecular target: T1, SARS-CoV-2 N-terminal domain (NTD)
Experiment: quantitative ELISA (FIG. 16C, F, I)

| Binder | binding result |
| --- | --- |
| B4 | binds |
| B5 | binds |

Molecular target: T1, SARS-CoV-2 N-terminal domain (NTD)
Experiment: quantitative ELISA

| Binder | binding result |
| --- | --- |
| B6 | no binding |
| B7 | no binding |
| B8 | no binding |
| B9 | no binding |
| B10 | no binding |

Molecular target: T1, SARS-CoV-2 N-terminal domain (NTD)
Experiment: ELISA

| Binder | binding result |
| --- | --- |
| B11 | no binding |
| B12 | no binding |
| B13 | no binding |
| B14 | no binding |
